The values that follow come from patent US20230312672A1 (published 2023).

The experiment concerns the target T1, CD20 peptide on HLA-A*02:01 (human).
T1 peptide: SLFLGILSV
Put plainly: multimer staining.

B1: TCR 79B2 (TCR, V domains shown)
Valpha: GEQVEQLPSILRVQEGSSASINCSYEDSASNYFPWYKQEPGENPKLIIDIRSNMERKQIQELIVLLDKKAKRFSLHITDTQPGDSAMYFCAASANTGANTGKLTFGHGTILRVHP
Vbeta: ETAVFQTPNYHVTQVGNEVSFNCKQTLGHDTMYWYKQDSKKLLKIMFSYNNKQLIVNETVPRRFSPQSSDKAHLNLRIKSVEPEDSAVYLCASSWGLGSYEQYFGPGTRLTVL
As for B1, the binding result is “recognises”.
